{"source": "paper PMC9393700", "test_in_all_cases": "SEC; Superdex S200 16/600 column; purified F proteins (Figure 2A)", "key": {"[1]": {"molecular_target": "RSV A2 F DsCav1 (trimer) (respiratory syncytial virus A2)"}, "[2]": {"molecular_target": "RSV head hMPV stem construct 1 (RHMS-1) (respiratory syncytial virus (RSV-A in Figure 1B) | human metapneumovirus (hMPV-A1 in Figure 1B)) (UniProt P03420)"}, "[3]": {"molecular_target": "trypsin-treated hMPV B2 F (human metapneumovirus B2)"}}}
{"substance": "RSV A2 F DsCav1 (trimer) (natural protein)", "values": [{"measurement": "stoichiometry N", "setting": "[1]", "result": 3}]}
{"substance": "RSV head hMPV stem construct 1 (RHMS-1) (from UniProt P03420 1-25; P03420 55-314)", "values": [{"measurement": "stoichiometry N", "setting": "[2]", "result": 3}]}
{"substance": "trypsin-treated hMPV B2 F (natural protein)", "values": [{"measurement": "stoichiometry N", "setting": "[3]", "result": 3}]}
